Literature values as cited in article PMC3433420.
Read-outs that look alike come from different tables or passages of the source.

What was measured:
Settings in all cases: cited from earlier work
VAV2 (Homo sapiens) [1] = target: VAV2 (Homo sapiens) (UniProt P52735)
PIK3R2-NC (Homo sapiens) = PIK3R2-NC (Homo sapiens) (UniProt O00459)
RASA1-NC (Homo sapiens) [2] = target: RASA1-NC (Homo sapiens) (UniProt P20936)
SHC1-PTB (Homo sapiens) [3] = target: SHC1-PTB (Homo sapiens) (UniProt P29353)
SH2D3C (Homo sapiens) = SH2D3C (Homo sapiens) (UniProt Q8N5H7)
Chain of SH2D3C (Homo sapiens) (Q8N5H7 215-324): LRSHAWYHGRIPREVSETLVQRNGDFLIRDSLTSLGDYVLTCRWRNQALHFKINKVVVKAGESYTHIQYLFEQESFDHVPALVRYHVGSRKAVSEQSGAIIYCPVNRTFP

CRK (Homo sapiens) = CRK (Homo sapiens) (UniProt P46108)
Chain of CRK (Homo sapiens) (P46108 8-123): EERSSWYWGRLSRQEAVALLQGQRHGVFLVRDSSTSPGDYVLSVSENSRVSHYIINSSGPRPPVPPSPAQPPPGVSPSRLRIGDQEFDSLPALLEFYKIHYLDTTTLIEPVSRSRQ

LYN (Homo sapiens) = LYN (Homo sapiens) (UniProt P07948)
Chain of LYN (Homo sapiens) (P07948 124-231): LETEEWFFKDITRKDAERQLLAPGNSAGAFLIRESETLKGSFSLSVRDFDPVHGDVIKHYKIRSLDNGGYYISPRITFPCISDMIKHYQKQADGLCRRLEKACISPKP

RASA1-N (Homo sapiens) [4] = target: RASA1-N (Homo sapiens) (UniProt P20936)
Chain of RASA1-N (Homo sapiens) (P20936 176-446): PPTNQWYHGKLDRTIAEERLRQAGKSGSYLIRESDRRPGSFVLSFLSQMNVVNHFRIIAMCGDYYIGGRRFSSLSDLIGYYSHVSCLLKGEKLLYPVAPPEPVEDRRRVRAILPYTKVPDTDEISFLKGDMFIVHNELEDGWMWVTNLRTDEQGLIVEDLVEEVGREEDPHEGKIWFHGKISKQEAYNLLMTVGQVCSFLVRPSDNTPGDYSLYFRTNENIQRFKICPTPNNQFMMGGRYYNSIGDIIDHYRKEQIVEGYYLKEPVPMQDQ

GRB14 (Homo sapiens) = GRB14 (Homo sapiens) (UniProt Q14449)
SUPT6H (Homo sapiens) = SUPT6H (Homo sapiens) (UniProt Q7KZ85)
PIK3R2-N (Homo sapiens) = PIK3R2-N (Homo sapiens) (UniProt O00459)
BLK (Homo sapiens) = BLK (Homo sapiens) (UniProt P51451)
Chain of BLK (Homo sapiens) (P51451 119-225): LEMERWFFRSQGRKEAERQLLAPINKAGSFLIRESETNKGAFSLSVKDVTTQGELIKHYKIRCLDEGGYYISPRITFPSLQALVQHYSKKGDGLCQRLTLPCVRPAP

SHB (Homo sapiens) = SHB (Homo sapiens) (UniProt Q15464)
Chain of SHB (Homo sapiens) (Q15464 405-509): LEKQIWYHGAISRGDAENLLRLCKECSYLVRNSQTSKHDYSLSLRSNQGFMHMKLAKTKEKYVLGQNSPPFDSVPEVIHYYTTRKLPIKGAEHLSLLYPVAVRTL

SH2B3 (Homo sapiens) = SH2B3 (Homo sapiens) (UniProt Q9UQQ2)
Chain of SH2B3 (Homo sapiens) (Q9UQQ2 359-467): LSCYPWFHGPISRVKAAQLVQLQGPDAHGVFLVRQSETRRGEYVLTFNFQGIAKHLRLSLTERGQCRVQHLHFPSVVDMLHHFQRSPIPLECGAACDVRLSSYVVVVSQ

VAV3 (Homo sapiens) = VAV3 (Homo sapiens) (UniProt Q9UKW4)
Chain of VAV3 (Homo sapiens) (Q9UKW4 667-771): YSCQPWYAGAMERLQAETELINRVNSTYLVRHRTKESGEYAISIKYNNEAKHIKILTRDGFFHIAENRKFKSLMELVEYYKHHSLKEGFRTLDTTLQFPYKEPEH

SYK-C (Homo sapiens) = SYK-C (Homo sapiens) (UniProt P43405)
ABL2 (Homo sapiens) [5] = target: ABL2 (Homo sapiens) (UniProt P42684)
Chain of ABL2 (Homo sapiens) (P42684 168-268): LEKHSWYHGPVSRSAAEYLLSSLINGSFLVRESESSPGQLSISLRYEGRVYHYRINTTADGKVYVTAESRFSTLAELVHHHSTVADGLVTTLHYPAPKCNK

BCAR3 (Homo sapiens) = BCAR3 (Homo sapiens) (UniProt O75815)
Chain of BCAR3 (Homo sapiens) (O75815 149-258): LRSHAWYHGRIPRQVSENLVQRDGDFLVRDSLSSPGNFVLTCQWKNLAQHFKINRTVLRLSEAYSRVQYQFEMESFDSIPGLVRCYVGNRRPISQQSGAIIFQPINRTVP

TNS3 (Homo sapiens) = TNS3 (Homo sapiens) (UniProt Q68CZ2)
Chain of TNS3 (Homo sapiens) (Q68CZ2 1167-1287): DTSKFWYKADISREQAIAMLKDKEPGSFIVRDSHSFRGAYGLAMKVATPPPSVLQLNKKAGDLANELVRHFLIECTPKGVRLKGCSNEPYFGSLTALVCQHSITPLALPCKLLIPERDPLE

ITK (Homo sapiens) = ITK (Homo sapiens) (UniProt Q08881)
SHC2-PTB (Homo sapiens) = SHC2-PTB (Homo sapiens) (UniProt P98077)
Chain of SHC2-PTB (Homo sapiens) (P98077 482-582): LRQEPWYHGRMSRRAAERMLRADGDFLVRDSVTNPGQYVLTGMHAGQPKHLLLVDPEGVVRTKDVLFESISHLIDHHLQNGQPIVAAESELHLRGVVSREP

TNS4 (Homo sapiens) [6] = target: TNS4 (Homo sapiens) (UniProt Q8IZW8)
Chain of TNS4 (Homo sapiens) (Q8IZW8 444-561): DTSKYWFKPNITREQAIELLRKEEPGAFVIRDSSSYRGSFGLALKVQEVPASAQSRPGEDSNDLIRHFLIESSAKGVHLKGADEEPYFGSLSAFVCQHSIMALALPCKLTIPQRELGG

PIK3R1-N (Homo sapiens) = PIK3R1-N (Homo sapiens) (UniProt P27986)
Chain of PIK3R1-N (Homo sapiens) (P27986 328-723): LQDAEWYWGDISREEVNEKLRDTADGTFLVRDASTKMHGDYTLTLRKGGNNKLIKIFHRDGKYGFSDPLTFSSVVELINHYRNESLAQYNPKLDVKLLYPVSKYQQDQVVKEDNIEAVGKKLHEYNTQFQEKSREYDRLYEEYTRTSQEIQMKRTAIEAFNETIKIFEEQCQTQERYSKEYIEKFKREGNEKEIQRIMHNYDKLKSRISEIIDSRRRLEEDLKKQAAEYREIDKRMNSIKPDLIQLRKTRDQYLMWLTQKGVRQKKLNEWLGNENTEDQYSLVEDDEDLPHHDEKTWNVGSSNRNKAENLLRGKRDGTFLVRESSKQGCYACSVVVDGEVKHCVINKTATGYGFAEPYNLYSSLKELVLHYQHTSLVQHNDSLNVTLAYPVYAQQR

GRB7 (Homo sapiens) [7] = target: GRB7 (Homo sapiens) (UniProt Q14451)
Chain of GRB7 (Homo sapiens) (Q14451 426-532): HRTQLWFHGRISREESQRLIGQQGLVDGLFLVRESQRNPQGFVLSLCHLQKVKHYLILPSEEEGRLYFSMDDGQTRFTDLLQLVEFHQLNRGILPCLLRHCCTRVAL

SYK-NC (Homo sapiens) [8] = target: SYK-NC (Homo sapiens) (UniProt P43405)
PLCG2-N (Homo sapiens) = PLCG2-N (Homo sapiens) (UniProt P16885)
Chain of PLCG2-N (Homo sapiens) (P16885 527-740): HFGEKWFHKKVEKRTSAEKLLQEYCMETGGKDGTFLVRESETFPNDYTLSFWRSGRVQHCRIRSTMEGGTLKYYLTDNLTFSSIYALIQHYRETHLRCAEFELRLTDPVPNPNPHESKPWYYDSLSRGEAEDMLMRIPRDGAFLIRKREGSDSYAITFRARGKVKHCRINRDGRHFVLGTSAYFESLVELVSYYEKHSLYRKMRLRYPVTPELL

YES1 (Homo sapiens) = YES1 (Homo sapiens) (UniProt P07947)
Chain of YES1 (Homo sapiens) (P07947 153-260): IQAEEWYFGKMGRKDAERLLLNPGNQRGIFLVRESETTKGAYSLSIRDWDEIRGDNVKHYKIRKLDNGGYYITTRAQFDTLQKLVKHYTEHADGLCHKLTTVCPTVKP

SLA (Homo sapiens) [9] = target: SLA (Homo sapiens) (UniProt Q13239)
Chain of SLA (Homo sapiens) (Q13239 79-180): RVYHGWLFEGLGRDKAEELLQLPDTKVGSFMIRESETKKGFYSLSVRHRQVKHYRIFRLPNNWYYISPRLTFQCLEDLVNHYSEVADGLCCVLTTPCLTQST

NCK2 (Homo sapiens) [10] = target: NCK2 (Homo sapiens) (UniProt O43639)
Chain of NCK2 (Homo sapiens) (O43639 280-380): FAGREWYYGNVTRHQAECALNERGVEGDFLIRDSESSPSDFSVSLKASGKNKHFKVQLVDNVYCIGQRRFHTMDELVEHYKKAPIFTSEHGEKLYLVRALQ

PLCG2-NC (Homo sapiens) = PLCG2-NC (Homo sapiens) (UniProt P16885)
Chain of PLCG2-NC (Homo sapiens) (P16885 527-740): as the sequence (P16885 527-740) above

PIK3R1-NC (Homo sapiens) = PIK3R1-NC (Homo sapiens) (UniProt P27986)
Chain of PIK3R1-NC (Homo sapiens) (P27986 328-723): as the sequence (P27986 328-723) above

PIK3R3-NC (Homo sapiens) [11] = target: PIK3R3-NC (Homo sapiens) (UniProt Q92569)
FGR (Homo sapiens) = FGR (Homo sapiens) (UniProt P09769)
SRC (Homo sapiens) = SRC (Homo sapiens) (UniProt P12931)
GRB10 (Homo sapiens) = GRB10 (Homo sapiens) (UniProt Q13322)
Chain of GRB10 (Homo sapiens) (Q13322 488-579): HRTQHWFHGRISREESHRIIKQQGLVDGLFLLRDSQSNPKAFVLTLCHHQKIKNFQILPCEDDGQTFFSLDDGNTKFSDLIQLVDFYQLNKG

SH2B (Homo sapiens) = SH2B (Homo sapiens) (UniProt Q9NRF2)
VAV2 (Homo sapiens) [12] = target: VAV2 (Homo sapiens) (UniProt P52735); remark: listed apart in the source
PLCG1-C (Homo sapiens) = PLCG1-C (Homo sapiens) (UniProt P19174)
VAV2 (Homo sapiens) [13] = target: VAV2 (Homo sapiens) (UniProt P52735); remark: listed apart in the source
PLCG1-NC (Homo sapiens) = PLCG1-NC (Homo sapiens) (UniProt P19174)
SLA (Homo sapiens) [14] = target: SLA (Homo sapiens) (UniProt Q13239); remark: listed apart in the source
SHC1-PTB (Homo sapiens) [15] = target: SHC1-PTB (Homo sapiens) (UniProt P29353); remark: listed apart in the source
PIK3R3-NC (Homo sapiens) [16] = target: PIK3R3-NC (Homo sapiens) (UniProt Q92569); remark: listed apart in the source
SYK-NC (Homo sapiens) [17] = target: SYK-NC (Homo sapiens) (UniProt P43405); remark: listed apart in the source
ABL2 (Homo sapiens) [18] = target: ABL2 (Homo sapiens) (UniProt P42684); remark: listed apart in the source
RASA1-N (Homo sapiens) [19] = target: RASA1-N (Homo sapiens) (UniProt P20936); remark: listed apart in the source
GRB7 (Homo sapiens) [20] = target: GRB7 (Homo sapiens) (UniProt Q14451); remark: listed apart in the source
SHC1-PTB (Homo sapiens) [21] = target: SHC1-PTB (Homo sapiens) (UniProt P29353); remark: listed apart in the source
NCK2 (Homo sapiens) [22] = target: NCK2 (Homo sapiens) (UniProt O43639); remark: listed apart in the source
GRB7 (Homo sapiens) [23] = target: GRB7 (Homo sapiens) (UniProt Q14451); remark: listed apart in the source
HSH2D (Homo sapiens) = HSH2D (Homo sapiens) (UniProt Q96JZ2)
ABL2 (Homo sapiens) [24] = target: ABL2 (Homo sapiens) (UniProt P42684); remark: listed apart in the source
SYK-NC (Homo sapiens) [25] = target: SYK-NC (Homo sapiens) (UniProt P43405); remark: listed apart in the source
TENC1 (Homo sapiens) = TENC1 (Homo sapiens) (UniProt Q63HR2)
Chain of TENC1 (Homo sapiens) (Q63HR2 1135-1252): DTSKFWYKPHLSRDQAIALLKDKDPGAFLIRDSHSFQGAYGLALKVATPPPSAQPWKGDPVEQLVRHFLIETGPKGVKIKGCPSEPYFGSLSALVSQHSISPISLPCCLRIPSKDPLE

RASA1-NC (Homo sapiens) [26] = target: RASA1-NC (Homo sapiens) (UniProt P20936); remark: listed apart in the source
MATK (Homo sapiens) = MATK (Homo sapiens) (UniProt P42679)
Chain of MATK (Homo sapiens) (P42679 117-216): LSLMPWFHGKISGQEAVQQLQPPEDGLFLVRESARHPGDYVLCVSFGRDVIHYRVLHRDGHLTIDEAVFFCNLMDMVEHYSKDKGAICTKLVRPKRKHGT

TNS4 (Homo sapiens) [27] = target: TNS4 (Homo sapiens) (UniProt Q8IZW8); remark: listed apart in the source

Chain of VAV2 (Homo sapiens) (P52735 668-772): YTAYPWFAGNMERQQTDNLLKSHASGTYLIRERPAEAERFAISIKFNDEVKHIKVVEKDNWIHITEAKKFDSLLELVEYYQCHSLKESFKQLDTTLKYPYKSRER
Chain of SHC1-PTB (Homo sapiens) (P29353 483-583): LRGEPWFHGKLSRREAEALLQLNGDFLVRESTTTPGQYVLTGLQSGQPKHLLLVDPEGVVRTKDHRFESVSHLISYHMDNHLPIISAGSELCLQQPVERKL
Chain of RASA1-NC (Homo sapiens) (P20936 176-446): as the sequence (P20936 176-446) above

## …pYQQDFFPKd
VAV2 (Homo sapiens) [1]
  apparent Kd (screen): 216 nM
PIK3R2-NC (Homo sapiens)
  apparent Kd (screen): 322 nM
RASA1-NC (Homo sapiens) [2]
  apparent Kd (screen): 1170 nM
SHC1-PTB (Homo sapiens) [3]
  apparent Kd (screen): 40 nM
SH2D3C (Homo sapiens)
  apparent Kd (screen): 1910 nM
CRK (Homo sapiens)
  apparent Kd (screen): 408 nM
LYN (Homo sapiens)
  apparent Kd (screen): 1590 nM
RASA1-N (Homo sapiens) [4]
  apparent Kd (screen): 1140 nM
GRB14 (Homo sapiens)
  apparent Kd (screen): 1250 nM
SUPT6H (Homo sapiens)
  apparent Kd (screen): 1030 nM
PIK3R2-N (Homo sapiens)
  apparent Kd (screen): 390 nM
BLK (Homo sapiens)
  apparent Kd (screen): 751 nM
SHB (Homo sapiens)
  apparent Kd (screen): 1790 nM
SH2B3 (Homo sapiens)
  apparent Kd (screen): 1600 nM
VAV3 (Homo sapiens)
  apparent Kd (screen): 2000 nM
SYK-C (Homo sapiens)
  apparent Kd (screen): 869 nM
ABL2 (Homo sapiens) [5]
  apparent Kd (screen): 490 nM
BCAR3 (Homo sapiens)
  apparent Kd (screen): 300 nM
TNS3 (Homo sapiens)
  apparent Kd (screen): 736 nM
ITK (Homo sapiens)
  apparent Kd (screen): 1410 nM
SHC2-PTB (Homo sapiens)
  apparent Kd (screen): 1310 nM
TNS4 (Homo sapiens) [6]
  apparent Kd (screen): 334 nM
PIK3R1-N (Homo sapiens)
  apparent Kd (screen): 404 nM
GRB7 (Homo sapiens) [7]
  apparent Kd (screen): 2000 nM
SYK-NC (Homo sapiens) [8]
  apparent Kd (screen): 1280 nM
PLCG2-N (Homo sapiens)
  apparent Kd (screen): 841 nM
YES1 (Homo sapiens)
  apparent Kd (screen): 98 nM
SLA (Homo sapiens) [9]
  apparent Kd (screen): 2000 nM
NCK2 (Homo sapiens) [10]
  apparent Kd (screen): 380 nM
PLCG2-NC (Homo sapiens)
  apparent Kd (screen): 674 nM
PIK3R1-NC (Homo sapiens)
  apparent Kd (screen): 547 nM
PIK3R3-NC (Homo sapiens) [11]
  apparent Kd (screen): 850 nM
FGR (Homo sapiens)
  apparent Kd (screen): 546 nM
SRC (Homo sapiens)
  apparent Kd (screen): 466 nM
GRB10 (Homo sapiens)
  apparent Kd (screen): 1290 nM
SH2B (Homo sapiens)
  apparent Kd (screen): 1820 nM

## …pYLQEYSTKd
VAV2 (Homo sapiens) [12]
  apparent Kd (screen): 2000 nM
PLCG1-C (Homo sapiens)
  apparent Kd (screen): 2000 nM
VAV2 (Homo sapiens) [13]
  apparent Kd (screen): 769 nM
PLCG1-NC (Homo sapiens)
  apparent Kd (screen): 2000 nM
SLA (Homo sapiens) [14]
  apparent Kd (screen): 2000 nM
SHC1-PTB (Homo sapiens) [15]
  apparent Kd (screen): 2000 nM
PIK3R3-NC (Homo sapiens) [16]
  apparent Kd (screen): 2000 nM
SYK-NC (Homo sapiens) [17]
  apparent Kd (screen): 2000 nM
ABL2 (Homo sapiens) [18]
  apparent Kd (screen): 883 nM
RASA1-N (Homo sapiens) [19]
  apparent Kd (screen): 2000 nM
GRB7 (Homo sapiens) [20]
  apparent Kd (screen): 2000 nM

## …pYWHSRLFP
SHC1-PTB (Homo sapiens) [21]
  apparent Kd (screen): 217 nM
NCK2 (Homo sapiens) [22]
  apparent Kd (screen): 1900 nM
GRB7 (Homo sapiens) [23]
  apparent Kd (screen): 1690 nM
HSH2D (Homo sapiens)
  apparent Kd (screen): 1700 nM
ABL2 (Homo sapiens) [24]
  apparent Kd (screen): 604 nM
SYK-NC (Homo sapiens) [25]
  apparent Kd (screen): 1980 nM
TENC1 (Homo sapiens)
  apparent Kd (screen): 1250 nM
RASA1-NC (Homo sapiens) [26]
  apparent Kd (screen): 1920 nM
MATK (Homo sapiens)
  apparent Kd (screen): 1870 nM
TNS4 (Homo sapiens) [27]
  apparent Kd (screen): 850 nM
